Target: Arg224 (UniProt position 224, YHALYRYFVEL)
Assay: electrophysiology

TASK-2 (K2P5.1) two-pore domain K+ channel (Mus musculus)
pKa (bath: 135 mM sodium gluconate, 1 mM potassium gluconate, 4 mM KCl, 2 mM CaCl2, 1 mM MgCl2, 105 mM sucrose, pipette: 8 mM KCl, 132 mM potassium gluconate, 1 mM MgCl2, 10 mM EGTA, 1 mM Na3ATP, 0.1 mM GT, 10 mM HEPES/Tris, 0 mV value from a fit across voltages, [K+]i/[K+]o 140/5 mM, intracellular pH 7.4): 8.37
pKa (bath: 135 mM sodium gluconate, 1 mM potassium gluconate, 4 mM KCl, 2 mM CaCl2, 1 mM MgCl2, 105 mM sucrose, pipette: 8 mM KCl, 132 mM potassium gluconate, 1 mM MgCl2, 10 mM EGTA, 1 mM Na3ATP, 0.1 mM GT, 10 mM HEPES/Tris, membrane potential +60 mV, [K+]i/[K+]o 140/5 mM, intracellular pH 7.4): 8.15
pKa (bath: 135 mM sodium gluconate, 1 mM potassium gluconate, 4 mM KCl, 2 mM CaCl2, 1 mM MgCl2, 105 mM sucrose, pipette: 8 mM KCl, 132 mM potassium gluconate, 1 mM MgCl2, 10 mM EGTA, 1 mM Na3ATP, 0.1 mM GT, 10 mM HEPES/Tris, membrane potential -120 mV, [K+]i/[K+]o 140/5 mM, intracellular pH 7.4): 8.76
pKa (not stated, most extracellular Cl- replaced by sulphate, extracellular solution with most Cl- replaced by sulphate, voltage not stated, cited from earlier work): 8.0

Source: publication PMC3725403
